Target: T1, Purified human GST-PABPN1 (human, UniProt Q86U42-1 1-306)
T1 sequence (looked up): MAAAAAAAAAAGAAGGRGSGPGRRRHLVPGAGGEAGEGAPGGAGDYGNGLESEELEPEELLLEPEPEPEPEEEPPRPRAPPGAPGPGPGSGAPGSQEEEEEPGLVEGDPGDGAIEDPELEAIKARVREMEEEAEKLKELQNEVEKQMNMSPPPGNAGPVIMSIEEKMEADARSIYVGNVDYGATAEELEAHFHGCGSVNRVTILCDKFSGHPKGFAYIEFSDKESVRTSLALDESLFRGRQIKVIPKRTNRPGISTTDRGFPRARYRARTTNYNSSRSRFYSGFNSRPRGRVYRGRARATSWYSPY
Test: peptide or protein array

Binding result, binds:
TQIFEDPREFLSHL (peptide, UniProt Q63053 211-224, looked up) [Arc array peptide 211-224]
LWRKRDLYQTLYVD (peptide, UniProt Q63053 302-315, looked up) [Arc array peptide 302-315]
QPKFKRFLRHPLPK (peptide, UniProt Q63053 330-343, looked up) [Arc array peptide 330-343]
